Experimental data from the supplement of paper PMC7125110.
± gives the standard error. Variants at the floor of the assay were thinned out.

B1: glmS ribozyme (parent)
chain: AUAAAAGCGCCAGAACUACAGAAAUGUAGUUGACGAGGAGGAGGUUUAUCGAAUUUUCGGCGGAUGCCUCCAAA

How the values were obtained:
Details in all cases: with glucosamine-6-phosphate
[1] = variants of: B1; experiment: self-cleavage kobs at 40 uM GlcN6P; higher = faster cleavage; RNA array
Method in brief: (§1)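 Glucosamine-6-phosphate in HEPES/KCl/Mg(OAc)2 buffer, at 40 μM to 10 mM, was flowed over barcoded ribozyme variants transcribed in situ by E. coli RNA polymerase on sequenced MiSeq chips. Tracking was through a hybridised Cy3 probe at 37 °C. kobs, kcat and KM came from exponential decay fits and weighted Michaelis–Menten fits of normalised per-tile medians.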

[2] = variants of: B1; experiment: self-cleavage kobs at 160 uM GlcN6P; higher = faster cleavage; RNA array
Method in brief: as §1

[3] = variants of: B1; experiment: self-cleavage kobs at 640 uM GlcN6P; higher = faster cleavage; RNA array
Method in brief: as §1

[4] = variants of: B1; experiment: self-cleavage kobs at 2500 uM GlcN6P; higher = faster cleavage; RNA array
Method in brief: as §1

[5] = variants of: B1; experiment: self-cleavage kobs at 10000 uM GlcN6P; higher = faster cleavage; RNA array
Method in brief: as §1

Variant: A53U C71G
- self-cleavage kobs at 40 uM GlcN6P [1]: 9.68e-05 ± 1.3e-05 s⁻¹
- self-cleavage kobs at 160 uM GlcN6P [2]: 0.000213 ± 7e-05 s⁻¹
- self-cleavage kobs at 640 uM GlcN6P [3]: 0.000283 ± 4.7e-05 s⁻¹
- self-cleavage kobs at 2500 uM GlcN6P [4]: 0.000247 ± 5.4e-05 s⁻¹
- self-cleavage kobs at 10000 uM GlcN6P [5]: 0.00158 ± 0.00036 s⁻¹

Variant: G9A C61A
- self-cleavage kobs at 40 uM GlcN6P [1]: < 1e-05 s⁻¹
- self-cleavage kobs at 160 uM GlcN6P [2]: < 1e-05 s⁻¹
- self-cleavage kobs at 640 uM GlcN6P [3]: < 1e-05 s⁻¹
- self-cleavage kobs at 2500 uM GlcN6P [4]: < 1e-05 s⁻¹
- self-cleavage kobs at 10000 uM GlcN6P [5]: < 1e-05 s⁻¹

Variant: G7U G62A
- self-cleavage kobs at 40 uM GlcN6P [1]: < 1e-05 s⁻¹
- self-cleavage kobs at 160 uM GlcN6P [2]: < 1e-05 s⁻¹
- self-cleavage kobs at 640 uM GlcN6P [3]: < 1e-05 s⁻¹
- self-cleavage kobs at 2500 uM GlcN6P [4]: < 1e-05 s⁻¹

Variant: G9U C16G C71U
- self-cleavage kobs at 40 uM GlcN6P [1]: < 1e-05 s⁻¹
- self-cleavage kobs at 2500 uM GlcN6P [4]: < 1e-05 s⁻¹

Variant: G44C C68G
- self-cleavage kobs at 40 uM GlcN6P [1]: < 1e-05 s⁻¹
- self-cleavage kobs at 160 uM GlcN6P [2]: < 1e-05 s⁻¹
- self-cleavage kobs at 640 uM GlcN6P [3]: < 1e-05 s⁻¹
- self-cleavage kobs at 2500 uM GlcN6P [4]: < 1e-05 s⁻¹
- self-cleavage kobs at 10000 uM GlcN6P [5]: < 1e-05 s⁻¹

Variant: G9C G43A G44U C70G
- self-cleavage kobs at 40 uM GlcN6P [1]: < 1e-05 s⁻¹
- self-cleavage kobs at 10000 uM GlcN6P [5]: < 1e-05 s⁻¹

Variant: C16G C70U
- self-cleavage kobs at 40 uM GlcN6P [1]: 0.000111 ± 1.4e-05 s⁻¹
- self-cleavage kobs at 160 uM GlcN6P [2]: 0.000359 ± 6.2e-05 s⁻¹
- self-cleavage kobs at 640 uM GlcN6P [3]: 0.000455 ± 8e-05 s⁻¹
- self-cleavage kobs at 2500 uM GlcN6P [4]: 0.000561 ± 9e-05 s⁻¹
- self-cleavage kobs at 10000 uM GlcN6P [5]: 0.00521 ± 0.001 s⁻¹

Variant: G13U G43A C50A C61U C68U
- self-cleavage kobs at 40 uM GlcN6P [1]: < 1e-05 s⁻¹

Variant: A12C G38C G44A A64G
- self-cleavage kobs at 40 uM GlcN6P [1]: < 1e-05 s⁻¹
- self-cleavage kobs at 2500 uM GlcN6P [4]: < 1e-05 s⁻¹

Variant: A6G C50G C58G
- self-cleavage kobs at 40 uM GlcN6P [1]: 0.000111 ± 2.7e-05 s⁻¹
- self-cleavage kobs at 160 uM GlcN6P [2]: 0.000451 ± 0.0001 s⁻¹

Variant: A42C G44C
- self-cleavage kobs at 40 uM GlcN6P [1]: < 1e-05 s⁻¹
- self-cleavage kobs at 160 uM GlcN6P [2]: < 1e-05 s⁻¹
- self-cleavage kobs at 640 uM GlcN6P [3]: < 1e-05 s⁻¹
- self-cleavage kobs at 10000 uM GlcN6P [5]: < 1e-05 s⁻¹

Variant: C16U C34A
- self-cleavage kobs at 40 uM GlcN6P [1]: < 1e-05 s⁻¹

Variant: A18G C70A
- self-cleavage kobs at 40 uM GlcN6P [1]: 4.53e-05 ± 2.1e-05 s⁻¹
- self-cleavage kobs at 10000 uM GlcN6P [5]: 0.000432 ± 0.00014 s⁻¹

Variant: G44U G51U C67G
- self-cleavage kobs at 40 uM GlcN6P [1]: < 1e-05 s⁻¹
- self-cleavage kobs at 2500 uM GlcN6P [4]: < 1e-05 s⁻¹
- self-cleavage kobs at 10000 uM GlcN6P [5]: < 1e-05 s⁻¹

Variant: G7U G32U C67G
- self-cleavage kobs at 40 uM GlcN6P [1]: < 1e-05 s⁻¹
- self-cleavage kobs at 2500 uM GlcN6P [4]: < 1e-05 s⁻¹
- self-cleavage kobs at 10000 uM GlcN6P [5]: < 1e-05 s⁻¹

Variant: U45A U54G
- self-cleavage kobs at 40 uM GlcN6P [1]: 0.00129 ± 0.00023 s⁻¹
- self-cleavage kobs at 160 uM GlcN6P [2]: 0.00383 ± 0.00079 s⁻¹
- self-cleavage kobs at 640 uM GlcN6P [3]: 0.0132 ± 0.0028 s⁻¹
- self-cleavage kobs at 2500 uM GlcN6P [4]: 0.0113 ± 0.0021 s⁻¹
- self-cleavage kobs at 10000 uM GlcN6P [5]: 0.0501 ± 0.011 s⁻¹

Variant: U54G G62U
- self-cleavage kobs at 40 uM GlcN6P [1]: < 1e-05 s⁻¹
- self-cleavage kobs at 160 uM GlcN6P [2]: < 1e-05 s⁻¹
- self-cleavage kobs at 640 uM GlcN6P [3]: < 1e-05 s⁻¹
- self-cleavage kobs at 2500 uM GlcN6P [4]: < 1e-05 s⁻¹
- self-cleavage kobs at 10000 uM GlcN6P [5]: < 1e-05 s⁻¹

Variant: A53G G60C
- self-cleavage kobs at 40 uM GlcN6P [1]: < 1e-05 s⁻¹
- self-cleavage kobs at 10000 uM GlcN6P [5]: < 1e-05 s⁻¹

Variant: A15G G37C
- self-cleavage kobs at 40 uM GlcN6P [1]: < 1e-05 s⁻¹
- self-cleavage kobs at 10000 uM GlcN6P [5]: 4.76e-05 ± 6.4e-06 s⁻¹

Variant: A12C U46C C50G G63U C67G C68U
- self-cleavage kobs at 40 uM GlcN6P [1]: 0.000202 ± 7.2e-05 s⁻¹
- self-cleavage kobs at 10000 uM GlcN6P [5]: 0.000454 ± 0.00012 s⁻¹

Variant: G35C G44A
- self-cleavage kobs at 40 uM GlcN6P [1]: < 1e-05 s⁻¹
- self-cleavage kobs at 10000 uM GlcN6P [5]: < 1e-05 s⁻¹

Variant: G7C G40C
- self-cleavage kobs at 40 uM GlcN6P [1]: < 1e-05 s⁻¹
- self-cleavage kobs at 2500 uM GlcN6P [4]: < 1e-05 s⁻¹
- self-cleavage kobs at 10000 uM GlcN6P [5]: < 1e-05 s⁻¹

Variant: G40C C68A
- self-cleavage kobs at 40 uM GlcN6P [1]: < 1e-05 s⁻¹
- self-cleavage kobs at 160 uM GlcN6P [2]: < 1e-05 s⁻¹
- self-cleavage kobs at 640 uM GlcN6P [3]: < 1e-05 s⁻¹
- self-cleavage kobs at 2500 uM GlcN6P [4]: < 1e-05 s⁻¹
- self-cleavage kobs at 10000 uM GlcN6P [5]: < 1e-05 s⁻¹

Variant: C16G U30G C61G
- self-cleavage kobs at 40 uM GlcN6P [1]: < 1e-05 s⁻¹
- self-cleavage kobs at 10000 uM GlcN6P [5]: < 1e-05 s⁻¹

Variant: C34A G37C G60U
- self-cleavage kobs at 40 uM GlcN6P [1]: < 1e-05 s⁻¹
- self-cleavage kobs at 10000 uM GlcN6P [5]: < 1e-05 s⁻¹

Variant: A14U U55G C61G
- self-cleavage kobs at 40 uM GlcN6P [1]: < 1e-05 s⁻¹
- self-cleavage kobs at 10000 uM GlcN6P [5]: < 1e-05 s⁻¹

Variant: A39U G66A
- self-cleavage kobs at 40 uM GlcN6P [1]: 0.000403 ± 0.00015 s⁻¹
- self-cleavage kobs at 160 uM GlcN6P [2]: 0.000797 ± 0.00024 s⁻¹
- self-cleavage kobs at 640 uM GlcN6P [3]: 0.00167 ± 0.00076 s⁻¹
- self-cleavage kobs at 2500 uM GlcN6P [4]: 0.00655 ± 0.0022 s⁻¹
- self-cleavage kobs at 10000 uM GlcN6P [5]: 0.0134 ± 0.0056 s⁻¹

Variant: C10G A14C
- self-cleavage kobs at 40 uM GlcN6P [1]: < 1e-05 s⁻¹
- self-cleavage kobs at 10000 uM GlcN6P [5]: < 1e-05 s⁻¹

Variant: U57G G60C
- self-cleavage kobs at 40 uM GlcN6P [1]: < 1e-05 s⁻¹
- self-cleavage kobs at 160 uM GlcN6P [2]: < 1e-05 s⁻¹
- self-cleavage kobs at 640 uM GlcN6P [3]: < 1e-05 s⁻¹
- self-cleavage kobs at 2500 uM GlcN6P [4]: < 1e-05 s⁻¹

Variant: G35C C58A
- self-cleavage kobs at 40 uM GlcN6P [1]: < 1e-05 s⁻¹
- self-cleavage kobs at 640 uM GlcN6P [3]: < 1e-05 s⁻¹
- self-cleavage kobs at 10000 uM GlcN6P [5]: < 1e-05 s⁻¹

Variant: A12U A33C G37C
- self-cleavage kobs at 40 uM GlcN6P [1]: < 1e-05 s⁻¹
- self-cleavage kobs at 10000 uM GlcN6P [5]: < 1e-05 s⁻¹

Variant: A12G C61G
- self-cleavage kobs at 40 uM GlcN6P [1]: < 1e-05 s⁻¹
- self-cleavage kobs at 10000 uM GlcN6P [5]: < 1e-05 s⁻¹

Variant: A42U U69A
- self-cleavage kobs at 40 uM GlcN6P [1]: 0.00293 ± 0.00038 s⁻¹
- self-cleavage kobs at 160 uM GlcN6P [2]: 0.00511 ± 0.0011 s⁻¹
- self-cleavage kobs at 640 uM GlcN6P [3]: 0.0164 ± 0.0051 s⁻¹
- self-cleavage kobs at 2500 uM GlcN6P [4]: 0.0275 ± 0.012 s⁻¹
- self-cleavage kobs at 10000 uM GlcN6P [5]: 0.101 ± 0.036 s⁻¹

Variant: C8U G35C
- self-cleavage kobs at 40 uM GlcN6P [1]: < 1e-05 s⁻¹
- self-cleavage kobs at 160 uM GlcN6P [2]: < 1e-05 s⁻¹
- self-cleavage kobs at 2500 uM GlcN6P [4]: < 1e-05 s⁻¹
- self-cleavage kobs at 10000 uM GlcN6P [5]: < 1e-05 s⁻¹

Variant: A6C A12G
- self-cleavage kobs at 40 uM GlcN6P [1]: < 1e-05 s⁻¹
- self-cleavage kobs at 160 uM GlcN6P [2]: < 1e-05 s⁻¹
- self-cleavage kobs at 640 uM GlcN6P [3]: < 1e-05 s⁻¹

Variant: C8U C10A C50A
- self-cleavage kobs at 40 uM GlcN6P [1]: < 1e-05 s⁻¹

Variant: A42U G44A U65G
- self-cleavage kobs at 40 uM GlcN6P [1]: < 1e-05 s⁻¹
- self-cleavage kobs at 160 uM GlcN6P [2]: < 1e-05 s⁻¹
- self-cleavage kobs at 640 uM GlcN6P [3]: < 1e-05 s⁻¹
- self-cleavage kobs at 2500 uM GlcN6P [4]: < 1e-05 s⁻¹
- self-cleavage kobs at 10000 uM GlcN6P [5]: < 1e-05 s⁻¹

Variant: A36G A52U
- self-cleavage kobs at 40 uM GlcN6P [1]: < 1e-05 s⁻¹
- self-cleavage kobs at 160 uM GlcN6P [2]: < 1e-05 s⁻¹
- self-cleavage kobs at 640 uM GlcN6P [3]: < 1e-05 s⁻¹
- self-cleavage kobs at 2500 uM GlcN6P [4]: < 1e-05 s⁻¹
- self-cleavage kobs at 10000 uM GlcN6P [5]: < 1e-05 s⁻¹

Variant: G7A U31A
- self-cleavage kobs at 40 uM GlcN6P [1]: < 1e-05 s⁻¹
- self-cleavage kobs at 640 uM GlcN6P [3]: < 1e-05 s⁻¹

Variant: C16A G29U U31C
- self-cleavage kobs at 40 uM GlcN6P [1]: 3.38e-05 ± 1.4e-05 s⁻¹
- self-cleavage kobs at 10000 uM GlcN6P [5]: 0.000493 ± 0.00013 s⁻¹

Variant: C10U C16U U47C U65C
- self-cleavage kobs at 40 uM GlcN6P [1]: < 1e-05 s⁻¹

Variant: U30C U55A U57G
- self-cleavage kobs at 40 uM GlcN6P [1]: < 1e-05 s⁻¹

Variant: U56G G63U
- self-cleavage kobs at 40 uM GlcN6P [1]: < 1e-05 s⁻¹
- self-cleavage kobs at 160 uM GlcN6P [2]: < 1e-05 s⁻¹
- self-cleavage kobs at 640 uM GlcN6P [3]: < 1e-05 s⁻¹
- self-cleavage kobs at 10000 uM GlcN6P [5]: < 1e-05 s⁻¹
